{"source": "the RNAGym collection of RNA variant scans (doi:10.7554/elife.80360)", "parents": {"B1": {"name": "HDV Ribozyme (parent)", "chain": "GGCCGGCAUGGUCCCAGCCUCCUCGCUGGCGCCGGCUGGGCAACAUUCCGAGGGGACCGUCCCCUCGGUAAUGGCGAAUGGGACCCA"}}}
{"variants_of": "B1", "test": "self-cleavage, relative activity (ratio to wild type); higher = more cleavage; co-transcriptional"}
{"variant": "U23A U27A", "self-cleavage": 0.675}
{"variant": "U23C A87U", "self-cleavage": 0.953}
{"variant": "U23C G54A", "self-cleavage": 0.888}
{"variant": "U23C G54U", "self-cleavage": 1.01}
{"variant": "C22U C57U", "self-cleavage": 0.817}
{"variant": "U23C G53C", "self-cleavage": 0.927}
{"variant": "U23A C64U", "self-cleavage": 0.935}
{"variant": "U23A C64G", "self-cleavage": 1.03}
{"variant": "C22U G59A", "self-cleavage": 0.675}
{"variant": "C22U G59U", "self-cleavage": 0.858}
{"variant": "U23A C33G", "self-cleavage": 0.35}
{"variant": "C22U U69G", "self-cleavage": 0.759}
{"variant": "C22U U69A", "self-cleavage": 0.554}
{"variant": "C22U U69C", "self-cleavage": 0.914}
{"variant": "U23C C58G", "self-cleavage": 0.673}
{"variant": "U23C C58A", "self-cleavage": 1.18}
{"variant": "U23C C58U", "self-cleavage": 0.928}
{"variant": "U23A C48G", "self-cleavage": 0.898}
{"variant": "U23A C48U", "self-cleavage": 1.21}
{"variant": "C22U G35A", "self-cleavage": 0.109}
{"variant": "C22U G35C", "self-cleavage": 0}
{"variant": "C22U G35U", "self-cleavage": 0.0511}
{"variant": "U23A G67A", "self-cleavage": 0.782}
{"variant": "U23A G67U", "self-cleavage": 0.849}
{"variant": "U23A G67C", "self-cleavage": 1.22}
{"variant": "C22G U72G", "self-cleavage": 0.0554}
{"variant": "C22G U72A", "self-cleavage": 0.196}
{"variant": "C22U U27G", "self-cleavage": 0.554}
{"variant": "U23C C26U", "self-cleavage": 1.26}
{"variant": "U23C C26A", "self-cleavage": 1.11}
{"variant": "U23C U65G", "self-cleavage": 0.95}
{"variant": "U23C U65C", "self-cleavage": 1.02}
{"variant": "U23C U65A", "self-cleavage": 1.09}
{"variant": "U23A C84G", "self-cleavage": 0.601}
{"variant": "U23A C84U", "self-cleavage": 0.762}
{"variant": "U23C G40C", "self-cleavage": 0.0852}
{"variant": "U23C G40A", "self-cleavage": 0.8}
{"variant": "U23A G55C", "self-cleavage": 1.12}
{"variant": "U23A G55A", "self-cleavage": 0.969}
{"variant": "C22G G76U", "self-cleavage": 0.089}
{"variant": "C22G G76C", "self-cleavage": 0.151}
{"variant": "C22U A43C", "self-cleavage": 0.0282}
{"variant": "U23A G76A", "self-cleavage": 0.978}
{"variant": "C22U A51U", "self-cleavage": 0.708}
{"variant": "U23A C49G", "self-cleavage": 1.16}
{"variant": "U23A C49A", "self-cleavage": 0.538}
{"variant": "U23A G73C", "self-cleavage": 0.554}
{"variant": "U23A G73A", "self-cleavage": 0.575}
{"variant": "U23C A70C", "self-cleavage": 0.939}
{"variant": "U23C A70G", "self-cleavage": 0.95}
{"variant": "U23C C57U", "self-cleavage": 0.743}
{"variant": "U23C C57G", "self-cleavage": 0.6}
{"variant": "C22U A83U", "self-cleavage": 0.199}
{"variant": "C22U A83G", "self-cleavage": 0.12}
{"variant": "C22U U47C", "self-cleavage": 0.424}
{"variant": "C22U U47A", "self-cleavage": 0.584}
{"variant": "U23A U37G", "self-cleavage": 0.415}
{"variant": "C22U A77G", "self-cleavage": 0.369}
{"variant": "C22U A77C", "self-cleavage": 0.141}
{"variant": "U23A G38C", "self-cleavage": 0.192}
{"variant": "U23A G38U", "self-cleavage": 0.208}
{"variant": "U23A G38A", "self-cleavage": 0.0963}
{"variant": "U23C U69C", "self-cleavage": 0.886}
{"variant": "U23A A70G", "self-cleavage": 0.931}
{"variant": "U23A C62A", "self-cleavage": 0.872}
{"variant": "C22G G73C", "self-cleavage": 0.0845}
{"variant": "C22G G73U", "self-cleavage": 0}
{"variant": "C22G G73A", "self-cleavage": 0.0692}
{"variant": "U23C G25C", "self-cleavage": 0.138}
{"variant": "U23C G25A", "self-cleavage": 0.101}
{"variant": "U23C G25U", "self-cleavage": 0.158}
{"variant": "U23A G34C", "self-cleavage": 0.339}
{"variant": "U23A G34U", "self-cleavage": 0.149}
{"variant": "U23A G34A", "self-cleavage": 0.121}
{"variant": "U23A U46G", "self-cleavage": 1.06}
{"variant": "U23A U46A", "self-cleavage": 0.623}
{"variant": "U23A U46C", "self-cleavage": 0.929}
{"variant": "C22U C32G", "self-cleavage": 0.0941}
{"variant": "C22U C61U", "self-cleavage": 0.62}
{"variant": "C22U C61A", "self-cleavage": 0.641}
{"variant": "C22G U47C", "self-cleavage": 0.18}
{"variant": "C22G U47A", "self-cleavage": 0.122}
{"variant": "U23G A78C", "self-cleavage": 0.106}
{"variant": "C22U U65G", "self-cleavage": 0.845}
{"variant": "C22U U65A", "self-cleavage": 0.831}
{"variant": "C22U C58G", "self-cleavage": 0.511}
{"variant": "C22U C75A", "self-cleavage": 0.0282}
{"variant": "C22U C75U", "self-cleavage": 0.214}
{"variant": "C22G U69G", "self-cleavage": 0.108}
{"variant": "C22U C24G", "self-cleavage": 0.0563}
{"variant": "U23G A77U", "self-cleavage": 0.237}
{"variant": "U23G A77C", "self-cleavage": 0.172}
{"variant": "C22G U27C", "self-cleavage": 0}
{"variant": "U23A C36A", "self-cleavage": 0.177}
{"variant": "U23A G54U", "self-cleavage": 0.937}
{"variant": "U23A G39A", "self-cleavage": 0.408}
{"variant": "C22U C66A", "self-cleavage": 0.758}
{"variant": "C22G G80U", "self-cleavage": 0.142}
{"variant": "U23C G81U", "self-cleavage": 0.499}
{"variant": "U23A C86G", "self-cleavage": 0.85}
{"variant": "U23A C86U", "self-cleavage": 0.872}
{"variant": "U23A C58G", "self-cleavage": 1.34}
{"variant": "U23A C58U", "self-cleavage": 1.25}
{"variant": "U23A A42G", "self-cleavage": 0.499}
{"variant": "U23C A71U", "self-cleavage": 0.808}
{"variant": "U23C A71C", "self-cleavage": 0.415}
{"variant": "C22U G68U", "self-cleavage": 0.572}
{"variant": "C22U G68C", "self-cleavage": 0.345}
{"variant": "U23C U47A", "self-cleavage": 1.03}
{"variant": "U23A U72A", "self-cleavage": 0.773}
{"variant": "U23A U72C", "self-cleavage": 0.332}
{"variant": "U23C A42C", "self-cleavage": 0.161}
{"variant": "U23C A42U", "self-cleavage": 0.415}
{"variant": "U23C C62U", "self-cleavage": 1.03}
{"variant": "U23C C62G", "self-cleavage": 0.987}
{"variant": "C22U C36G", "self-cleavage": 0.162}
{"variant": "C22U C36U", "self-cleavage": 0.254}
{"variant": "U23C C86G", "self-cleavage": 0.95}
{"variant": "U23C C48U", "self-cleavage": 0.806}
{"variant": "U23C C48G", "self-cleavage": 1.05}
{"variant": "U23C C48A", "self-cleavage": 1.12}
{"variant": "C22U A71G", "self-cleavage": 0.506}
{"variant": "C22U A71U", "self-cleavage": 0.587}
{"variant": "C22U U23G", "self-cleavage": 0.246}
{"variant": "C22U U23A", "self-cleavage": 0.845}
{"variant": "U23A C24G", "self-cleavage": 0.113}
{"variant": "C22U G54A", "self-cleavage": 0.709}
{"variant": "C22U G54C", "self-cleavage": 0.641}
{"variant": "U23C U79A", "self-cleavage": 0.554}
{"variant": "U23C U79C", "self-cleavage": 0.232}
{"variant": "C22U G74A", "self-cleavage": 0.113}
{"variant": "U23A G31U", "self-cleavage": 0.271}
{"variant": "U23A G31C", "self-cleavage": 0.44}
{"variant": "U23C G29A", "self-cleavage": 0.0665}
{"variant": "U23C G29U", "self-cleavage": 0.142}
{"variant": "C22U", "self-cleavage": 0.736}
{"variant": "U23C G34U", "self-cleavage": 0.145}
{"variant": "U23C U46G", "self-cleavage": 0.739}
{"variant": "U23C U46A", "self-cleavage": 0.538}
{"variant": "U23C U46C", "self-cleavage": 0.745}
{"variant": "C22G U23C", "self-cleavage": 0}
{"variant": "C22U C84U", "self-cleavage": 0.29}
{"variant": "U23C G55C", "self-cleavage": 0.914}
{"variant": "U23C G55U", "self-cleavage": 1.08}
{"variant": "C22U G34C", "self-cleavage": 0.0852}
{"variant": "C22U G34A", "self-cleavage": 0.0468}
{"variant": "U23A A51G", "self-cleavage": 1.01}
{"variant": "U23A A51C", "self-cleavage": 0.731}
{"variant": "C22G G67C", "self-cleavage": 0.132}
{"variant": "C22U C63A", "self-cleavage": 0.697}
{"variant": "C22G U46C", "self-cleavage": 0.116}
{"variant": "C22U C41A", "self-cleavage": 0.674}
{"variant": "C22U C41U", "self-cleavage": 0.656}
{"variant": "C22U C41G", "self-cleavage": 0.554}
{"variant": "C22U C44U", "self-cleavage": 0.249}
{"variant": "C22U C62G", "self-cleavage": 0.431}
{"variant": "C22U C62A", "self-cleavage": 0.623}
{"variant": "U23A G52C", "self-cleavage": 0.946}
{"variant": "U23A G52U", "self-cleavage": 0.819}
{"variant": "U23C C75A", "self-cleavage": 0.166}
{"variant": "U23C C75U", "self-cleavage": 0.0739}
{"variant": "C22U C33A", "self-cleavage": 0.0692}
{"variant": "U23C A43U", "self-cleavage": 0.298}
{"variant": "U23A U69A", "self-cleavage": 1.01}
{"variant": "U23A U69C", "self-cleavage": 0.942}
{"variant": "U23A A71G", "self-cleavage": 0.8}
{"variant": "U23A A71U", "self-cleavage": 0.831}
